Target: human GLP-1 receptor (human) (UniProt P43220)
Assay: cell-based or functional assay

Chain of human GLP-1 receptor (human) (P43220 24-463): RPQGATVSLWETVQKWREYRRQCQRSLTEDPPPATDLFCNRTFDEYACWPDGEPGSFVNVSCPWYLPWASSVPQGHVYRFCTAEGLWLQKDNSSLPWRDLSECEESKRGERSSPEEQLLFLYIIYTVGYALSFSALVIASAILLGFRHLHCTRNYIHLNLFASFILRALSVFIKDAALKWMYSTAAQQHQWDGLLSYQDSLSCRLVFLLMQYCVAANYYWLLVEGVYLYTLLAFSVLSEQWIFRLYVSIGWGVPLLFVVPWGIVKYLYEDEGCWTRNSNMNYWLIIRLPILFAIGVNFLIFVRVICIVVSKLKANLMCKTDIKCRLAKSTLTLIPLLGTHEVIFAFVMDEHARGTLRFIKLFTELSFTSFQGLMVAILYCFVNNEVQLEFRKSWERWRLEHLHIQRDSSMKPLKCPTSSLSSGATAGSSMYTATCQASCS

GLP-1 7-36 (from UniProt P01275 21-180) (peptide)
GLP-1R BA (10 uM albumin) EC50 (pM) n = 2 (CRE-luciferase reporter in CHO 6CRE GLP1R cells): 19 pM | GLP-1R BA EC50 (pM) n = 3 (CRE-luciferase reporter in CHO 6CRE GLP1R cells): 21 pM
